Experimental findings from patent US20240216490A1, “Autoantigens Engineered to Suppress Autoimmune Response” (Osprey Biopharmaceuticals, Inc., priority 2022, published 2024) are described below.

What all share (assay type): in vivo, mouse
Series [1] deals with C57BL6 mice. Kind of series: anti-antigen antibody production in C57BL6 mice pre-dosed with adalimumab (Example 5). The following applies: one to four weekly 4 mg/kg s.c. doses (groups A to D); serum day 27. The source says:
To evaluate the production of antibodies specific to adalimumab-SigL conjugates after pre-dosing with adalimumab, C57BL6 mice were immunized with adalimumab one, two, three, or four times (groups A to D), or once with adalimumab followed by two doses of adalimumab-SigL (Group E) (FIG. 5). Conjugates bear BPC-Neu5Gc-based Siglec Ligand-Linker structures with affinity for Siglec-2. On study day −1, animals were randomized into treatment groups based on body weight. On study day 0, animals were bled for baseline serum and then injected subcutaneously (s.q.) with adalimumab, SigL-conjugated adalimumab antibody, or PBS, once every seven days for a total of four injections over twenty-eight days. The individual antigens were prepared by making a 0.8 mg/ml antigen solution in sterile buffered saline. Animals were then injected with 0.1 ml (˜4 ml/kg) of the 0.8 mg/ml antigen on the rear flanks. […]
(§1) Anti-drug antibody (ADA) response assays were performed on 96-well assay plates (Nunc Plates, Black 96-Well Immuno Plates, Thermo Scientific, 437111) coated with antigen, as follows. […] The excitation and emission settings for the QuantaBlu Fluorogenic Peroxide Substrates are 325 nm and 420 nm and the relative florescence units were measured using a SpectraMax plate reader. […] Titers were determined by the dilution of serum that gives a 2× OD above background.

The subject of the next series is C57Bl/6 mice. Kind of series: durability of tolerization with late adalimumab challenges (Example 12). The settings on record: 4 weekly 4 mg/kg s.c. doses, then adalimumab 4 mg/kg at days 91, 147, 174, 202. The procedure: To evaluate the durability of the induced tolerization status established with the SigL-conjugated adalimumab (as exemplified in Examples 4 and 11), female C57Bl/6 mice (n=5 per group) were primed with four subcutaneous doses of either SigL-conjugated adalimumab (4 mg/kg) or unconjugated adalimumab (4 mg/kg) given seven days apart over a 28 day period. Animals in both groups were later challenged with single subcutaneous doses of unconjugated adalimumab (4 mg/kg) at days 91, 147, 174, and 202. Animals were injected with 0.1 ml (˜4 mg/kg) of the 0.8 mg/ml test article preparations on the rear flanks. The total dose based on a 20 g mouse would be 4 mg/kg per injection per dose. Bleeds were taken for anti-drug antibody analysis at days 0, 28, 112, 146, 168, 201, and 232. Anti-drug antibody (ADA) response assays were performed as described in Example 4.

The test system of series [2] is C57BL6 mice. Kind of series: prophylactic tolerization and anti-drug antibody (ADA) production in C57BL6 mice (Example 4). The following applies: 4 weekly s.c. doses of 4 mg/kg; serum day 28.
Excerpt: To evaluate the production of antibodies specific to adalimumab, two control groups of C57BL6 mice were immunized with adalimumab or the individual SigL-conjugated adalimumab antibodies. Conjugates bear BPC-Neu5Gc-based Siglec Ligand-Linker structures with affinity for Siglec-2. On study day −1, animals were randomized into treatment groups based on body weight. On study day 0, animals were bled for baseline serum and then injected subcutaneously (s.q.) with adalimumab or the individual SigL-conjugated adalimumab antibodies once every seven days for a total of four injections over twenty-eight days. The individual antigens were prepared by making a 0.8 mg/ml antigen solution in sterile buffered saline. Animals were then injected with 0.1 ml (˜4 ml/kg) of the 0.8 mg/ml antigen on the rear flanks. The total dose based on a 20 g mouse would be 4 mg/kg per injection. […]
as §1

In the case of adalimumab, in the series on C57BL6 mice [1], the anti-adalimumab titers entry is “progressively stronger anti-adalimumab titers”. In addition, the anti-drug antibody level entry in the series with C57Bl/6 mice was “strong, saturating level of ADA”. The “immunogenicity (anti-drug antibody response, serum IgG titer)” value with C57BL6 mice [2] is reported as “highly immunogenic”.
